Among the data in publication PMC6702328, “A VDAC1-Derived N-Terminal Peptide Inhibits Mutant SOD1-VDAC1 Interactions and Toxicity in the SOD1 Model of ALS” (Frontiers in Cellular Neuroscience, 2019) are inhibition of channel conductance of bilayer-reconstituted VDAC1 and survival of mESC-derived SOD1^G93A-expressing motor neurons with the (1-20)-N-Ter-Antp peptide, 10 μM, 96 h values, retold here.

In assay [1] the target is recombinant full-length murine VDAC1 (murine) (UniProt Q60932).
Assay [2] shares this target. This is another data set of the same source.

recombinant full-length murine VDAC1 (murine), sequence (Q60932 14-296): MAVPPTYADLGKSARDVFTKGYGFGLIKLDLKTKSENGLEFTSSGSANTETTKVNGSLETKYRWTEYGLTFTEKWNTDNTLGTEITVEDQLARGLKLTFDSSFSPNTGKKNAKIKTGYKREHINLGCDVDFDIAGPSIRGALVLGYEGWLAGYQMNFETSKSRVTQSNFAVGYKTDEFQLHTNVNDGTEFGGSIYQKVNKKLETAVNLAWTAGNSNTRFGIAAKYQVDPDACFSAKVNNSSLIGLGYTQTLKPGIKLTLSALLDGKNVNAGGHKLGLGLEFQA

For the substance human mutant SOD1^G85R (enzyme), in assay [1], the inhibition of channel conductance of bilayer-reconstituted VDAC1 came to 40%. Turning to human mutant SOD1^G93A (enzyme), in assay [2], the survival of mESC-derived SOD1^G93A-expressing motor neurons with the (1-20)-N-Ter-Antp peptide, 10 μM, 96 h came out at 2 fold. Besides, in assay [1], the inhibition of channel conductance of bilayer-reconstituted VDAC1 is 57%.
